Data taken from article PMC10833452 (2023).
Like-named read-outs stand apart in the source and are kept apart here.

B1: 8H12 monoclonal antibody (mouse IgG) (antibody, V domains shown)
VH: EVKLEESGGGLVQPGGSMKLSCAASGFTFSDAWMDWVRQSPEKGLEWVAQIRRKANNHATYYAESVKGRFTISRDDSKSSVYLQMNSLRAEDTGIYYCIRGMTYAMDFWGQGTSVTVSS
VL: DIVMTQFQKFMSTSVGDRVSITCKASQNVRTAVAWYQQKPGQSPKAMIYLASNRHRGVPDRFTGSGCGTDFTLTISNVQCEDLADYFCLQHRNYPLTFGGGTKLEIK
B2: 3E2 monoclonal antibody (mouse IgG) (antibody, V domains shown)
VH: EVMLVESGGGVVKPGGSLKLSCAASGFSFSTYAMSWIRQTPEKSLEWVAAISSGGTNTYYPGSVKGRFTISRDKAMNTLYLQLSSLRSEDTAMYYCVRHSGNYVDSVMDYWGQGTSVTVSS
VL: QIVLTQSPAIMSASLGEEITLTCSVSSSVSDMHWYQQKSGTSPKVFIYSTSNLASGVPSRFSGSGSGTFYSLTISSVEAEDAAYYYCHQWSSWTFGGGTKLEIK

Experiments:
Assay in all cases: SPR
WT-RBD [1] = molecular target: WT-RBD
WT-RBD [2] = molecular target: WT-RBD; remark: listed apart in the source
WT-RBD [3] = molecular target: WT-RBD; remark: listed apart in the source

Binder | Kd (WT-RBD [1]) [nM] | Kd (WT-RBD [2]) [nM] | Kd (WT-RBD [3]) [nM]
B1 | 0.398 | 0.4 | 
B2 |  | 0.004 | 0.00354
